B1: SEQ ID NO:1: shortest exonuclease III fragment of brain glycogen phosphorylase nucleic acid, ending 100 bp after the start codon (nucleic acid)
DNA: ATGGGCGAACCGCTGACGGACAGCGAGAAGCGGAAGCAGATCAGCGTGCGCGGCCTGGCGGGGCTAGGCGACGTGGCCGAGGTGCGGAAGAGCTTCAACCGGCACTTGCA
modifications: chemistry not fully specified
notes: shortest exonuclease III fragment of brain glycogen phosphorylase nucleic acid, ending 100 bp after the start codon
B2: SEQ ID NO:3: fragment of brain glycogen phosphorylase nucleic acid ending at position 140 (nucleic acid)
DNA: ATGGGCGAACCGCTGACGGACAGCGAGAAGCGGAAGCAGATCAGCGTGCGCGGCCTGGCGGGGCTAGGCGACGTGGCCGAG
modifications: chemistry not fully specified
B3: SEQ ID NO:2: fragment of brain glycogen phosphorylase nucleic acid ending at position 161 (nucleic acid)
DNA: ATGGGCGAACCGCTGACGGACAGCGAGAAGCGGAAGCAGATCAGCGTGCGCGGCCTGGCGGGGCTAGGCGACGTGGCCGAGGTGCGGAAGAGCTTCAACCGG
modifications: chemistry not fully specified

System: antigen recognized by CTL 246/76
Test: TNF release from CTL 246/76 provoked by HOB cells transfected with cDNA fragment and HLA-A2
Type: cell-based, human
Settings: fragment cotransfected with HLA-A2 into HOB cells
Experimental: The transfection of HOB cells was made in duplicate wells. Briefly, samples of HOB cells were seeded, at 15,000 cells/well into tissue culture flat bottom microwells, in DMEM supplemented with 10% fetal calf serum. The cells were incubated overnight at 37° C., medium was removed and then replaced by 100 μl/well total volume of DMEM medium containing 20% Nu-Serum (Collaborative Research, Bedford, Mass.), 300 μg/ml DEAE-dextran, and 200 μM chloroquine, plus 100 ng of the LB373-MEL cDNA library cloned in pcDNAI/Amp and 50 ng of HLA-A2 cloned in pcDNAI/Amp. Following four hours of incubation at 37° C., the medium was removed, and replaced by 50 μl of PBS containing 10% dimethyl sulfoxide (DMSO). This medium was removed after two minutes and replaced by 200 μl of DMEM supplemented with 10% FCS.
Following this change in medium, HOB cells were incubated for 48 hours at 37° C. The transfectants then were screened with CTL 246/76. After first removing the medium, 2000 CTL 246/76 cells were added to each well in 100 μl of medium containing 25 U/ml IL-2. The amount of TNF present in the supernatant was then measured by testing its cytotoxicity for WEHI 164.13 cells. Most pools gave a TNF concentration below 5 pg/ml. cDNAs from pools which gave higher concentrations in both of the duplicate wells were cloned in bacteria. Their plasmid DNA was extracted and transfected into HOB cells with HLA-A2. The transfectants were screened with CTL 246/76. One cDNA clone gave a high TNF production by CTL 246/76. The cDNA was sequenced, compared with DNA sequence databases and determined to encode brain glycogen phosphorylase.
Fragments of the brain glycogen phosphorylase cDNA were prepared by exonuclease III digestion from the 3' end of the cDNA according to art standard procedures, were cloned into an expression vector and transfected into HOB cells with HLA-A2 as described above. As a positive control, the brain glycogen phosphorylase cDNA was cotransfected with HLA-A2 into HOB cells. These transfectants were used to provoke release of TNF from CTL 246/76 cells.
Shorter fragments were generated by PCR. […]

Molecule | confers expression of the antigen recognized by CTL 246/76
B1 | able to confer expression of the antigen
B2 | did not confer expression of the antigen
B3 | did confer expression of the antigen

Source: patent publication US6096520A, “Brain glycogen phosphorylase cancer antigen” (Ludwig Institute for Cancer Research, priority 1998, dated 2000)
